Target: T1, full-length Spike of SARS-CoV-2 on transfected 293T cells (SARS-CoV-2, UniProt P0DTC2)
T1 construct: also called Spike-expressing cells; Wuhan-hu-1 Spike
Experiment: flow cytometry on cells
Settings: one partner purified

B1: Ab159 (antibody, V domains shown)
VH: QVQLVESGGGLVKPGGSLRLSCAASGFTFNNAWMSWVRQAPGKGLEWVGRIKSKTDGGTTDYAAPVKGRFTFSRDDSKNTLYLQMSSLKTEDTALYYCTTADYDILTGTPASPYWGQGTLVTVSS
VL: DIQMTQSPSSLSASVGDRVTITCRASQSITNYLNWYQQKPGKAPKFLIYAASSLQGGVPSRFRGSGSGTDFTLTISSLQPEDFATYYCQQTYSTLWTFGQGTKVEIK
notes: copies: 2 + 2
binding result: binds

From article PMC9664764 (iScience, 2022)
